Measured values published in paper PMC9482650, “Quantitative fragmentomics allow affinity mapping of interactomes” (Nature Communications, 2022).

Key:
Experiment in all cases: holdup assay
Parameters in all cases: key: below the threshold = too weak to quantify, mostly under pKd 3.1 to 4
Settings in all cases: plain residues with an end cap or a label only (N-terminal biotin on a linker: ttds)
[1] = target: T1, CARD11, Q9BXL7
T1 sequence (Q9BXL7 662-765, limits assumed, looked up): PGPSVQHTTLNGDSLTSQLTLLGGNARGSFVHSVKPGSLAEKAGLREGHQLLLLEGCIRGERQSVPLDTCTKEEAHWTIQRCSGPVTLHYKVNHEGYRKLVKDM

[2] = target: T2, DFNB31_2, Q9P202
T2 sequence (Q9P202 274-371, limits assumed, looked up): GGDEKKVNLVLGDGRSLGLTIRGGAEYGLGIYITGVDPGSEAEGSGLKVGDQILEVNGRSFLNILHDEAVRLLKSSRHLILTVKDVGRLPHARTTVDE

[3] = target: DLG1_1, Q12959
[4] = target: T3, FRMPD1, Q5SYB0
T3 sequence (Q5SYB0 52-145, limits assumed, looked up): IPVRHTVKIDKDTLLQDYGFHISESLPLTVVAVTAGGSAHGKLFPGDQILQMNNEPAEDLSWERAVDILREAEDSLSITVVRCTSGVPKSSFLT

[5] = target: FRMPD2_3, Q68DX3
Chain of FRMPD2_3, Q68DX3 (Q68DX3 1073-1166): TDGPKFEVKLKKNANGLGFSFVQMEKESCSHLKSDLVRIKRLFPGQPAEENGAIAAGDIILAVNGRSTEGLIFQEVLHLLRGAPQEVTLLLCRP

[6] = target: GORASP1, Q9BQQ3
Chain of GORASP1, Q9BQQ3 (Q9BQQ3 1-208): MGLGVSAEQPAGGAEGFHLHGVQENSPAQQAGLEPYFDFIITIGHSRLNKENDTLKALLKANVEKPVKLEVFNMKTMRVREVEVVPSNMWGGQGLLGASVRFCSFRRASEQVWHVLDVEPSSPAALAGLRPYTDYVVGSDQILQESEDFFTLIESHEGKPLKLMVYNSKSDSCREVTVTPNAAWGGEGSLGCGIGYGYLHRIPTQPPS

[7] = target: GRASP, Q7Z6J2
Chain of GRASP, Q7Z6J2 (Q7Z6J2 96-193): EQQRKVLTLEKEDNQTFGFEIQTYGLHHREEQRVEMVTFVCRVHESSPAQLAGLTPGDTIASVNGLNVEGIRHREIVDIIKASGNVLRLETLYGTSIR

[8] = target: GRIP2_3, Q9C0E4
Chain of GRIP2_3, Q9C0E4 (Q9C0E4 238-339): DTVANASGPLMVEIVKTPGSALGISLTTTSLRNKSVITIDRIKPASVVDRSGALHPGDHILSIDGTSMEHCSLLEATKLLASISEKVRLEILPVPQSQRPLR

[9] = target: IL16_1, Q14005
Chain of IL16_1, Q14005 (Q14005 210-306): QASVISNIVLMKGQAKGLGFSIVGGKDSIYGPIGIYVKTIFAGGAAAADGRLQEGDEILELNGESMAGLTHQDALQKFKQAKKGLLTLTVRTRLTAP

[10] = target: Inadl_2, Q8NI35
Chain of Inadl_2, Q8NI35 (Q8NI35 238-335): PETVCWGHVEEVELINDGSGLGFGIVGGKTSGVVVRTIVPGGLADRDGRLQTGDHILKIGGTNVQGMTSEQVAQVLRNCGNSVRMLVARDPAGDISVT

[11] = target: LAP2, Q96RT1
Chain of LAP2, Q96RT1 (Q96RT1 other isoform, or with tags, fused parts or gaps): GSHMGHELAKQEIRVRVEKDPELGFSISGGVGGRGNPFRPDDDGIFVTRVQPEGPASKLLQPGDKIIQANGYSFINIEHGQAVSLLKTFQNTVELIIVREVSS

[12] = target: T4, LIN7A, O14910
T4 sequence (O14910 103-200, limits assumed, looked up): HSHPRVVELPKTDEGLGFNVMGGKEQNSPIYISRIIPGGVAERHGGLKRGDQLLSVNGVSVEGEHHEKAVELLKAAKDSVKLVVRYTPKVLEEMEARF

[13] = target: LNX1_1, Q8TBB1
Chain of LNX1_1, Q8TBB1 (Q8TBB1 261-371): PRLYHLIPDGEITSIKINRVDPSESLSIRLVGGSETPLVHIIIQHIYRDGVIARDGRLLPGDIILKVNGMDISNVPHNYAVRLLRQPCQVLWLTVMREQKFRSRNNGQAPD

[14] = target: MAGI1_2, Q96QZ7
Chain of MAGI1_2, Q96QZ7 (Q96QZ7 456-580): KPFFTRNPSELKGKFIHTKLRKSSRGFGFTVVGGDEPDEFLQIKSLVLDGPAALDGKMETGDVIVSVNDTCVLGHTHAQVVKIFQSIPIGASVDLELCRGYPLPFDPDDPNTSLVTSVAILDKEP

[15] = target: MAGI2_6, Q86UL8
Chain of MAGI2_6, Q86UL8 (Q86UL8 1141-1229): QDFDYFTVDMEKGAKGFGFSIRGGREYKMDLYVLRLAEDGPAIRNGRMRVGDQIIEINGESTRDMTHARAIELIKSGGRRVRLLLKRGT

[16] = target: MAGI3_2, Q5TCQ9
Chain of MAGI3_2, Q5TCQ9 (Q5TCQ9 398-503): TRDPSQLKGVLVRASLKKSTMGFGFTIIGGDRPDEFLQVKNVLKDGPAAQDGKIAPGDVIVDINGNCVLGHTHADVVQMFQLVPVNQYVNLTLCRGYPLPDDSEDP

[17] = target: T5, MPP2, Q14168
T5 sequence (Q14168 180-250, limits assumed, looked up): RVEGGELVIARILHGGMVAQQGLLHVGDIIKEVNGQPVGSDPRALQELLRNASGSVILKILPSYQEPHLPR

[18] = target: T6, MPP7, Q5T2T1
T6 sequence (Q5T2T1 134-230, limits assumed, looked up): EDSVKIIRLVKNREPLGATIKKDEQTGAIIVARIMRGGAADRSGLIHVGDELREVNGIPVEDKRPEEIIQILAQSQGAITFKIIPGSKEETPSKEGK

[19] = target: NHERF4_2, Q86UT5
Chain of NHERF4_2, Q86UT5 (Q86UT5 220-308): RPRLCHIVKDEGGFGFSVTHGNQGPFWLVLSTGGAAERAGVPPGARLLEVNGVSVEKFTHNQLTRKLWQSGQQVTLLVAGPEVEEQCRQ

[20] = target: T7, PCLO, Q9Y6V0
T7 sequence (Q9Y6V0 4491-4600, limits assumed, looked up): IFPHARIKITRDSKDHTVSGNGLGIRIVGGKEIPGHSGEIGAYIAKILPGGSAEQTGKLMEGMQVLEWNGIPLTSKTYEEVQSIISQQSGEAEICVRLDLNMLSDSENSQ

[21] = target: PICK1, Q9NRD5
Chain of PICK1, Q9NRD5 (Q9NRD5 17-115): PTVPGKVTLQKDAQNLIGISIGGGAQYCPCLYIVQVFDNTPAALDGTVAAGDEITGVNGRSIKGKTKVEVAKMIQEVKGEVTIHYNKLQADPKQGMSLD

[22] = target: T8, RADIL, Q96JH8
T8 sequence (Q96JH8 971-1071, limits assumed, looked up): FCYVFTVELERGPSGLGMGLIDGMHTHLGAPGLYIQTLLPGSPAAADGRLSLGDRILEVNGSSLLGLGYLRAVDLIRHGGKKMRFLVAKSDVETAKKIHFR

[23] = target: T9, RAPGEF6, Q8TEU7
T9 sequence (Q8TEU7 525-625, limits assumed, looked up): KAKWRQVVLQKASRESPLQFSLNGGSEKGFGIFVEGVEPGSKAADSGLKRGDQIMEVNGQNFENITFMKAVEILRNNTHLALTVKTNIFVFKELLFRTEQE

[24] = target: SCRIB_1, Q14160
Chain of SCRIB_1, Q14160 (Q14160 718-814): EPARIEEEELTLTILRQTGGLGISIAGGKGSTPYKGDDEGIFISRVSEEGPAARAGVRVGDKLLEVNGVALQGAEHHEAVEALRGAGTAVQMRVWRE

[25] = target: T10, SNTG2, Q9NY99
T10 sequence (Q9NY99 68-166, limits assumed, looked up): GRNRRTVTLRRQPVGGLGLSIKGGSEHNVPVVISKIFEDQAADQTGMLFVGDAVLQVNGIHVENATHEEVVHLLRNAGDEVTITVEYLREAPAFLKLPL

[26] = target: T11, SYNJ2BP, P57105
T11 sequence (P57105 8-110, limits assumed, looked up): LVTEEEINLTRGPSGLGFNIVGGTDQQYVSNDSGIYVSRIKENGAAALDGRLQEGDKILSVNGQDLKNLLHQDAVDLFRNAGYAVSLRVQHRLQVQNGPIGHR

[27] = target: TJP2_1, Q9UDY2
Chain of TJP2_1, Q9UDY2 (Q9UDY2 24-128): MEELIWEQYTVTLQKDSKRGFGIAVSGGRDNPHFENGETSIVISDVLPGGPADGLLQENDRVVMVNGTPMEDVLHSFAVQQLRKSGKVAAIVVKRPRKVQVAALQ

## NPDALPETLV [ARHGAP6, O43182]
[1]
  pKd: below the threshold
[2]
  pKd: below the threshold
[3]
  pKd: 4.39
[4]
  pKd: below the threshold
[5]
  pKd: below the threshold
[6]
  pKd: below the threshold
[7]
  pKd: below the threshold
[8]
  pKd: below the threshold
[9]
  pKd: 3.87
[10]
  pKd: 3.93
[11]
  pKd: 3.8
[12]
  pKd: 3.61
[13]
  pKd: 3.83
[14]
  pKd: below the threshold
[15]
  pKd: 4.31
[16]
  pKd: 4.6
[17]
  pKd: below the threshold
[18]
  pKd: below the threshold
[19]
  pKd: below the threshold
[20]
  pKd: below the threshold
[21]
  pKd: below the threshold
[22]
  pKd: 4.08
[23]
  pKd: below the threshold
[24]
  pKd: below the threshold
[25]
  pKd: 4.95
[26]
  pKd: 4.06
[27]
  pKd: below the threshold

## QRPYRRESEI [KCNJ12, Q14500]
[1]
  pKd: below the threshold
[2]
  pKd: below the threshold
[3]
  pKd: 4.04
[4]
  pKd: below the threshold
[5]
  pKd: below the threshold
[6]
  pKd: below the threshold
[7]
  pKd: below the threshold
[8]
  pKd: below the threshold
[9]
  pKd: below the threshold
[10]
  pKd: below the threshold
[11]
  pKd: below the threshold
[12]
  pKd: below the threshold
[13]
  pKd: below the threshold
[14]
  pKd: 4
[15]
  pKd: below the threshold
[16]
  pKd: 4.75
[17]
  pKd: below the threshold
[18]
  pKd: below the threshold
[19]
  pKd: below the threshold
[20]
  pKd: below the threshold
[21]
  pKd: below the threshold
[22]
  pKd: below the threshold
[23]
  pKd: below the threshold
[24]
  pKd: 3.83
[25]
  pKd: 3.63
[26]
  pKd: 5.17
[27]
  pKd: below the threshold

## GRLLGLETNV [ARHGEF26, Q96DR7]
[1]
  pKd: below the threshold
[2]
  pKd: below the threshold
[3]
  pKd: 4.76
[4]
  pKd: below the threshold
[5]
  pKd: below the threshold
[6]
  pKd: below the threshold
[7]
  pKd: below the threshold
[8]
  pKd: below the threshold
[9]
  pKd: 3.78
[10]
  pKd: below the threshold
[11]
  pKd: 4.41
[12]
  pKd: below the threshold
[13]
  pKd: 3.81
[14]
  pKd: 3.65
[15]
  pKd: 4.39
[16]
  pKd: 4.68
[17]
  pKd: below the threshold
[18]
  pKd: below the threshold
[19]
  pKd: below the threshold
[20]
  pKd: below the threshold
[21]
  pKd: below the threshold
[22]
  pKd: below the threshold
[23]
  pKd: below the threshold
[24]
  pKd: 4.45
[25]
  pKd: 4.55
[26]
  pKd: 4.86
[27]
  pKd: below the threshold
